Test results from the RNAGym collection of RNA variant scans (doi:10.1073/pnas.2313332121).
Fewer inactive variants are shown than the library holds.

B1: TPR 5TU (parent)
chain: GGAUCUUCUCGAUCUAACAAAAAAGACAAAUCUGCCACAAAGCUUGAGAGCAUCUUCGGAUGCAGAGGCGGCAGCCUUCGGUGGCGCGAUAGCGCCAACGUUCUCAACUAUGACACGCAAAACGCGUGCUCCGUUGAAUGGAGUUUAUCAUG

Variants of: B1
Experiment: polymerase ribozyme fitness, log enrichment relative to wild type (log ratio); higher = more active; in vitro selection for triplet polymerase activity
How it was run: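 Fitness is a logarithmic measure of how a genotype enriched relative to the wild type, with replicate averages weighted by inverse variance. The logarithm uses base 2, and enrichment came from Illumina sequencing of input and output libraries. Those libraries were PCR-built, transcribed mutants of each subunit of a heterodimeric triplet polymerase ribozyme, passed through one triplicate in vitro selection round that included frozen incubation at −7 °C, gel excision of extended constructs and streptavidin-bead capture. Genotypes were kept only if they had ≥10 input reads and ≥1 read per output.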

Row | Variant | polymerase ribozyme fitness (log ratio)
1 | GGAUCUUCUCGAUCUAACAAAAAAGACUAAUCUGCCACAAAGCUUGAGGGCAUAUUCGGAUGCAGAGGCGGCAGCCUUCGGUGGCGCGAUAGUGCCAACGUUCUCAACUAUGACACGCAAAACGCGUGCUCCGUUGAAUGGAGCUUAUCAUG [A28U A49G C54A C93U U144C] | ≤ -4.2
2 | GGAUCUUCUCGAUCUAACAAAAAAGACUAAUCUGCCACAAAGCUUGAGAGCAUCUUCGGAUGCAGCGGCGGUAGCCUUCGGUGGCGCGAUCGCGCCAACGUUCUCAACUAUGAUACGCAAAACGCGUGCUCCGUUGAAUGGAGUUUAUCAUG [A28U A66C C72U A91C C114U] | ≤ -4.2
3 | GGAUCUUCUCGAUCUAACAAAAAAGACUAAUCUGCCACCAAGCUUGAGAGCAUCUUCGGAUGCAGAGGCGGCAGCCUUCGGUGGCGCGAUAGCGCCAGCGUUCUCAACUAUGACACGCAAAACGCGUGCUCCGUUGAAUGGAUGUGAUCAUG [A28U A39C A98G G143U U144G U146G] | ≤ -4.2
4 | GGAUCUUCUCGAUCUAACAAAAAAGACUAAUCUGCCACAAAGCUUGAGAGCAUCUUCGGAUGCAGCGGCGGCAGCCUUCGGUUGCGCGAUAGCGCCAACGUUCUCAACUAUGACACGCAAAGCGCGUGCUCCGUUGAAUGGAGUUUAUCAUG [A28U A66C G83U A122G] | -4.16
5 | GGAUCUUCUCGAUCUAACAAAAAAGACUAAUCUGCCACAAUGCUUGAGAGCAUCUUAGGAUGCAGAGGCCGCAGCCUUCGGUGGCGCUUUAGCGACAACGUUCUCAACUAUGACACGCAAAACGCGUGCUCCGUUGAAUGGAGUUUAUCAUG [A28U A41U C57A G70C G88U A89U C95A] | ≤ -4.2
6 | GGAUCUUCUCGAUCUAACAAAAAAGACUAAUCUGCCACAAAGCUUGCGAGCAUCUUCGGAUGCAGAGGCGGCAGCCUUCGGUGGCGCGAUAGCGCCAACGUUCUCAACUAUGACACGCAAAACGCGUGCUCCGUUGAAUGGAGUUUAUCAUG [A28U A47C] | -3.9
7 | GGAUCUUCUCGAUCUAACAAAAAAGACUGAUCUGCCACAAAGCUUGAGAGCAUCUUCGGAUGCAGAGGCGGCAGGCUUCGUUGGGGCGAUAGCGCCAACGUUCUCCACUAUGACACGCAAAACGCGUGAUCCGUUGAAUGGAGUUUAUCAUG [A28U A29G C75G G81U C85G A106C C129A] | ≤ -4.2
8 | GGAUCUUCUCGAUCUAACAAAAAAGACUAAUCUGCCACAUAGCUUGAAAGCAUCUUCGGAUGCAGAGGCGGCAGCCUUCGGUGGCGCGAUAGCGCCAACGUUCUCAACUAUGACACGCUAAACGCGCGCUCCGUUGAAUGGAGUUGAUCAUG [A28U A40U G48A A119U U127C U146G] | ≤ -4.2
9 | GGAUCUUCUCGAUCUAACAAAAAAGACUUAUCUGCCACAAAGCUUGAGAGCAUCUUCGGAUGCAAAGGCGGCAGCCUUCGGUGGCGCGAUAGCGGCAACGUUCUGAACUAGGACACGCAAAACGCGUGCUCCGUUGCAUGGAGUUUAUCAUC [A28U A29U G65A C95G C105G U111G A137C G152C] | ≤ -4.2
10 | GGAUCUUCUCGAUCUAACAAAAAAGACUACUAUGCCACAAAGCUUGCGAGCAUCUUCCGAUGCAGAGGCGGCAGCCUUCGGUGGUGCGAUAGCGCCAACGUUCUCAUCUAUGACACGCAAAACGCGUGCUCCGUUGAAUGGAGUUUAUCAUG [A28U A30C C32A A47C G58C C85U A107U] | ≤ -4.2
11 | GGAUCUUCUCGAUCUAACAAAAAAGACUAAUCUGCCACAAAGCUUGAGUGCAUCUUCGGAUGCAGAGGCGGCAGCCUUCGGUGGCGCGAUAGCGCCAACGUUCUCAACUAUGACACGCAAAACGCGUGCUCCGUUGAAGGGAGUUUAUCAUG [A28U A49U U139G] | ≤ -4.2
12 | GGAUCUUCUCGAUCUAACAAAAAAGACUAAUCUGCCCCAAAGCUUGAGAGCAUCAUCGGAUGCAGAGGCGGCAGCCUUCGGUGGCGCGAUAGCGCCAACGUUCUCCACUAUGACACGCAAAACGCGUGCUCCGGUGAAUAGAGUUUAUCAUG [A28U A37C U55A A106C U134G G140A] | ≤ -4.2
13 | GGAUCUUCUCGAUCUAACAAAAAAGACUUAUCUGCCGCAAAGCUUGAGAGCAUCUUCGGAUGCAGUGGCGGCUGCCUGCGGUGACGCGAUAGCGCCAACGUUCUCAACUAUGACACGCAAAACGCGUGCUCCGUUGAAUGGAGUUUAUCAUG [A28U A29U A37G A66U A73U U78G G84A] | ≤ -4.2
14 | GGAUCUUCUCGAUCUAACAAAAAAGACUUAUCUGCCACAAAGCUUGAGAGCAUCUUCGGAAGCAGAGGCGGCAGCCUUCGAUGGCGCGAUAGAGCCAACGUUCUCAACUAUGACACGCAAAACGCGUGCUCCGUUGAAUGGAGUUUAUCAUG [A28U A29U U61A G81A C93A] | ≤ -4.2
15 | GGAUCUUCUCGAUCUAACAAAAAAGACUAAUCUGCCACAAAGCUUGCGAGCAUCUUCGGAUGCAGAGGCGGCAGCCUUCGGUGGCGCGAUAGCGCCAACGUUCUCAACUAUGACACGCAAAACGCGUGCGCCGUUGAAUGGAGUUUAUCAUG [A28U A47C U130G] | ≤ -4.2
16 | GGAUCUUCUCGAUCUAACAAAAAAGACUAAUCUGCCACAAAGCUUGAGAGCAUCUUCGGAUGCAGAGGCGGCGGCCUUCGGUGGCGCGAUAGCGCCAACGUUCUCAACUAUGACACGCAAAACGCGUGCUCCGUUGAAUGGAGUUUAUCAUG [A28U A73G] | ≤ -4.2
17 | GGAUCUUCUCGAUCUAACAAAAAAGACUGUUCUGCCACAAAGCUUGAGAGCAUCUUCGGAAGCAGAGGCGGCAGCCUUCCGUGGCGCGAUAGAGCCAACGUUCUCAACUAUGUCACGCAAAACGCGUGCUCCGUUGAAUUAAGUUUAUCAUG [A28U A29G A30U U61A G80C C93A A113U G140U G141A] | ≤ -4.2
18 | GGAUCUUCUCGAUCUAACAAAAAAGACUAAUCUGCCACAACGCUUGAGAGCAUCUUCGGAUGCAGAGGCGGCAGCCUUCGGUGGCGCGAUAGCGCAAACGUUCUCAACUAUGACACGCAAAACGCGUGCUCCGUUGAAUGCAGUUUAUCAUG [A28U A41C C96A G141C] | -4.02
19 | GGAUCUUCUCGAUCUAACAAAAAAGACUAAUCUGCCACAACGCUUGAGAGCAUCUUCGGAUGCAGAGGCGGCAGCCUUCGGUGGCGCCAUAGCGCCAACGUUCUCAACUAUGACACGCAAAACGCGUGCUCCGUUGAAUGGAGUUUAUCAUG [A28U A41C G88C] | ≤ -4.2
